US20210032351A1 (XDCEXPLORER SHANGHAI, published 2021)
Where a chain is given by its changes, count along the chain named.

B1: Murine anti-7E5 (antibody, V domains shown)
VH: EIQLQQSGPELVKPGASVKVSCKASGYSFTDYNMYWVKQSHGKSLEWIGYVDPSNGGTNYNQKFKGKATLTVDKSSSTAFMHLNSLTSEDSAVYYCARGFFDYWGQGTTLTVSS
VL: DIVMTQSPSSLTVTAGEKVTMSCKSSQSLLNSGNQKNYLTWYQQKPGQPPKLLIYWASNRESGVPDRFTGSGSGKDFTLTISSVQAEDLAVYYCQNDYRYPVTFGAGTKLELK
notes: Mouse hybridoma antibody; also called 7E5-2A9; murine anti-7E5-2
B2: Murine anti-75G7 (antibody, V domains shown)
VH: EVQLQQSGPELVKPGASVKIPCKASGYTFTDYNMDWVKQSHGKSLEWIGDINPNNGDTIYNQKFKGKATLTVDKSSSTAYMELRSLTSEDTAVYYCARGDYDGYYPVYYAMDYWGQGTSVTVSS
VL: ENVLTQSPAIMSASPGEKVTMTCRASSSVSSSYLHWYQQKSGASPKLWIFSTSNLAAGVPARFSGSGSGTSYSLTVSSVEAEDAATYYCQQYSGYPLTFGAGTKLELK
notes: Mouse hybridoma antibody; also called 75G7C6
B3: Murine anti-63A10 (antibody, V domains shown)
VH: QVQLQQSGAELARPGASVKMSCKASGYTFISFTMHWVKQRPGQGLEWIGYINPNSGYTKYNQKFKDKATLTAGQSSSTAYMQLSSLTSEDSAVYYCTRGGGRGFAYWGQGTLVTVSA
VL: DILMTQSPSSMSVSLGDTVTITCHASQDINSNIGWLQQKPGKSFKALIYHGTNLEDGVPSRFSGSGSGADYSLTISSLESEDFADYYCVQYAQFPFTFGSGTKLEIK
notes: Mouse hybridoma antibody; also called 63A10A7
B4: Chimeric antibody 64F1 (antibody, human IgG1, V domains shown)
VH: B3 VH with I30S, F32Y, V37A, N54S, G73D, Q74K, A92I, T97A
VL: QIVLTQSPAIMSASPGERVTMTCSASSSVSYMYWYQQKPGSSPRLLIYDTSNLASGVPVRFSGSGSGTSYSLTISRVEAEDAATYYCQQWSSYSLTFGAGTKLELK
notes: also called clone 64F1F8
B5: Murine anti-64F1 (antibody, V domains shown)
VH: B3 VH with I30S, F32Y, V37A, N54S, G73D, Q74K, A92I, T97A
VL: B4 VL
notes: Mouse hybridoma antibody; also called 64F1F8

How the values were obtained:
[1] = biological target: T1, biotin-labeled recombinant EGFRvIII protein (UniProt P00533 25-645, biotin-labeled); assay: competitive ELISA; competitor Control antibody 01
T1 construct: the construct is not described
Experimental: (§1) The purified antibodies to be tested are diluted with PBS to 1 μg/mL, coated onto a 96-well high-adsorption ELISA plate at 50 μL/well at 4° C. overnight, and then blocked with 250 μL of the blocking solution [PBS containing 0.01% (v/v) Tween20 and 1% (w/w) BSA] for one hour at room temperature, and each well is added with 0.05 μg/mL of the biotin-labeled recombinant EGFRvIII protein. Simultaneously, 5 μg/mL of the competitive antibody (i.e., the purified EGFRvIII antibody obtained in example 2) is added thereto, and incubated at 25° C.−37° C. for 1 to 2 hours. The plate is washed 3 times with the plate washing solution [PBS containing 0.01% (v/v) Tween20], and added with HRP (horseradish peroxidase) labeled streptavidin (purchased from Sigma). The plate is incubated for 0.5 hour at 37° C., and then washed 3 times with the plate washing solution [PBS containing 0.01% (v/v) Tween20]. The plate is added with 100 μL of TMB substrate/well, incubated for 30 minutes at room temperature, and then added with 100 μL of stopping solution (1.0N HCl)/well. A450 nm value is read using an ELISA plate reader (SpectraMax 384 plus, purchased from Molecular Device), and the results are shown in FIG. 6.

[2] = biological target: T2, human EGFRvIII protein on the surface of U87MG-hEGFRvIII cells (human, UniProt P00533 25-1210); assay: FACS on U87MG-hEGFRvIII cells
T2 construct: whole, on cells; Stably transfected U87MG cells; also called mutant EGFRvIII protein; U87MG-EGFRvIII
Experimental: (§2) The cells are washed twice with the HBSS buffer and are counted, and then the cells are diluted with the HBSS buffer to 2×10⁶ cells/ml, added with 1% goat serum blocking solution, with the percentage being the mass percentage, and incubated on ice for 30 minutes, and then centrifugally washed twice with the HBSS buffer. The collected cells are suspended to 2×10⁶ cells/mL with an FACS buffer (HBSS+1% BSA, with the percentage being the mass percentage), added to a 96-well FACS reaction plate at 100 μL/well, then added with 100 μL/well of the purified EGFRvIII antibody (samples to be tested) obtained in example 2, and incubated on ice for 2 hours. The plate is centrifugally washed twice with the FACS buffer, added with 100 μL/well of a fluorescence (Alexa 488) labeled secondary antibody (purchased from Invitrogen), and then incubated on ice for 1 hour. The plate is centrifugally washed 3 times with the FACS buffer, added with 100 μL/well of a fixing solution [4% (v/v) paraformaldehyde] for suspending the cells, and centrifugally washed twice with the FACS buffer after 10 minutes. The cells are suspended in 100 μL of the FACS buffer, and the results are detected and analyzed by FACS (FACS Calibur, purchased from BD). Data analysis is performed by using the software (CellQuest) to obtain the mean fluorescence intensity (MFI) of the cells. Data is further analyzed by using the software (GraphPad Prism5) to perform data fitting and calculate EC50. […] A431 cells (human epidermal cell cancer cell lines) have a large amount of wild-type EGFR protein expressed on the surface thereof. […] U87MG cells (human glioma cell lines) have a small amount of wild-type EGFR protein expressed on the surface thereof, while HEB cells (human glioma cell lines) have a high level of wild-type EGFR protein expression on the surface thereof.

[3] = biological target: T1, biotin-labeled recombinant EGFRvIII …; assay: competitive ELISA; competitor Control antibody 02
Experimental: as §1

[4] = biological target: T2, human EGFRvIII protein on the surface …; assay: immunohistochemical staining, human glioma tissue chip
[5] = biological target: T1, biotin-labeled recombinant EGFRvIII …; assay: competitive ELISA; competitor Murine anti-7E5
Experimental: as §1

[6] = biological target: T1, biotin-labeled recombinant EGFRvIII …; assay: competitive ELISA; competitor Murine anti-63A10
Experimental: as §1

[7] = biological target: T3, wild-type human EGFR protein on the surface of cells (A431, HEB, U87MG) (human, UniProt P00533 25-1210); assay: FACS on A431 cells
T3 construct: whole, on cells; One molecule for all three cell lines; the cell line is named under assay; also called wild-type EGFR
Experimental: as §2, with “The” for “The cells are washed twice with the HBSS buffer and are counted, and then the cells are diluted with the HBSS buffer to 2×10⁶ cells/ml, added with 1% goat serum blocking solution, with the percentage being the mass percentage, and incubated on ice for 30 minutes, and then centrifugally washed twice with the HBSS buffer. The”

[8] = biological target: T1, biotin-labeled recombinant EGFRvIII …; assay: competitive ELISA; competitor Murine anti-64F1
Experimental: as §1

[9] = biological target: T1, biotin-labeled recombinant EGFRvIII …; assay: competitive ELISA; competitor Murine anti-75G7
Experimental: as §1

[10] = biological target: T4, human EGFRvIII protein on the cell surface (human, UniProt P00533 25-1210); assay: FACS on U87MG-hEGFRvIII cells
T4 construct: whole, on cells; the cell line is named under assay; also called hEGFRvIII; U87MG-hEGFRvIII
Experimental: as §2

[11] = biological target: T5, human wild-type EGFR protein on the cell surface (human, UniProt P00533 25-1210); assay: FACS on A431 cells; A431 cells (large amount of wild-type EGFR on the surface)
T5 construct: whole, on cells; Endogenous on A431, HEB, U87MG cells and normal human primary hepatocytes; transfected on CHOk1-EGFR cells; The cell is named under assay; also called A431; HEB
Experimental: as §2

[12] = biological target: T6, human EGFRvIII-hFc protein (human, UniProt P00533 25-645); assay: ELISA, EGFRvIII-hFc coated
T6 construct: extracellular domain; also called immunogen A; hFc-tagged EGFRvIII protein; not shown: human IgG Fc fragment (hFc) of the pCpC vector
Experimental: The purified immunogen A (EGFRvIII-hFc) obtained in example 1 (for the preparation method, see step (I) in example 1) is diluted with PBS to a final concentration of 1.0 μg/mL, and then added to a 96-well ELISA plate at 100 μl/well. The plate is sealed with a plastic film and incubated at 4° C. overnight. The next day, the plate is washed twice with a plate washing solution [PBS+0.01% (v/v) Tween20], and added with a blocking solution [PBS+0.01% (v/v) Tween20+1% (w/w) BSA] for blocking 2 hours at room temperature. […] The plate is incubated for 2 hours at 37° C., and then washed 3 times with the plate washing solution [PBS+0.01% (v/v) Tween20]. The plate is added with an HRP (horseradish peroxidase) labeled secondary antibody (purchased from Sigma), incubated at 37° C. for 2 hours, and then washed 3 times with the plate washing solution [PBS+0.01% (v/v) Tween20]. The plate is added with 100 μl of TMB substrate/well, incubated for 30 minutes at room temperature, and then added with 100 μl of stopping solution (1.0N HCl)/well. A450 nm value is read using an ELISA plate reader (SpectraMax 384plus, purchased from Molecular Device), and the results are shown in FIG. 11 and table 19.

Row | Binder | competition rate [1] | EC50 [2] | competition rate [3] | positive samples of 70 GBM samples [4] | competition rate [5] | competition rate [6] | binding result [7] | competition rate [8] | competition rate [9] | EC50 [10] | EC50 [11] | OD450 nm at 0.0001 nM antibody [12] | OD450 nm at 0.001 nM antibody [12] | OD450 nm at 0.01 nM antibody [12] | OD450 nm at 0.1 nM antibody [12] | OD450 nm at 1 nM antibody [12] | OD450 nm at 10 nM antibody [12] | OD450 nm at 100 nM antibody [12]
1 | B1 | -2% | 2.9 nM | 66% | 24 samples | 85% | 70% | no binding | 71% | 23% |  |  |  |  |  |  |  |  | 
2 | B2 | -5% | 4.8 nM | -2% |  | 3% | 9% |  | -3% | 67% |  |  |  |  |  |  |  |  | 
3 | B3 | -3% | 3.1 nM | 79% | 24 samples | 82% | 89% |  | 73% | 20% |  |  |  |  |  |  |  |  | 
4 | B4 |  |  |  |  |  |  |  |  |  | 2.1 nM | 180 nM | 0.08 OD450 | 0.11 OD450 | 0.35 OD450 | 2.23 OD450 | 3.72 OD450 | 3.78 OD450 | 3.7 OD450
5 | B5 | -5% | 2 nM | 69% | 24 samples | 80% | 81% |  | 72% | 13% |  |  |  |  |  |  |  |  | 
